Measurements taken from patent US20130230533A1 (Regeneron, published 2013).

T1: Monomeric human CD48-mmH (human)
T1 chain: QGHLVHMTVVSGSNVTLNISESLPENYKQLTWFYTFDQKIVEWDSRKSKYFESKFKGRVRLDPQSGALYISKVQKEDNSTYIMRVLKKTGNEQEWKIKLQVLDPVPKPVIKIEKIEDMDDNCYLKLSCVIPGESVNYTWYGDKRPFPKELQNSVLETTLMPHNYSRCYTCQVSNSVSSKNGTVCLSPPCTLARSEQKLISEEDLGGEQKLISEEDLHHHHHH

T2: Dimeric human CD48-mFc (human)
T2 construct: the whole entry is the construct; also called hCD48-mFc
T2 chain: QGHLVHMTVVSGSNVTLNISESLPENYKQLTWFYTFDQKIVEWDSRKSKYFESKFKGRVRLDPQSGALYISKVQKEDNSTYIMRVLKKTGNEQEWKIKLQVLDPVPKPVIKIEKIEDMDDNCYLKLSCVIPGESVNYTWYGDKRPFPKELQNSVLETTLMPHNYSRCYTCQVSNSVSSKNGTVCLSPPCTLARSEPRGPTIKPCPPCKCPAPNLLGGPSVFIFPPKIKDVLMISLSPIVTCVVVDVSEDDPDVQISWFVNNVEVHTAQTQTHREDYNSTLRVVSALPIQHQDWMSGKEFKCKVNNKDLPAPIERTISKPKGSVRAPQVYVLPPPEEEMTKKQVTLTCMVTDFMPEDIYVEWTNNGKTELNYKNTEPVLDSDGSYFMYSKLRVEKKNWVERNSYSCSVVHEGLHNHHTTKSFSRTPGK

T3: Monomeric monkey CD48-mmH (monkey)
T3 construct: Soluble monkey CD48 with a myc-myc-hexa-histidine C-terminal tag; the whole entry is the construct; also called mfCD48-mmH
T3 chain: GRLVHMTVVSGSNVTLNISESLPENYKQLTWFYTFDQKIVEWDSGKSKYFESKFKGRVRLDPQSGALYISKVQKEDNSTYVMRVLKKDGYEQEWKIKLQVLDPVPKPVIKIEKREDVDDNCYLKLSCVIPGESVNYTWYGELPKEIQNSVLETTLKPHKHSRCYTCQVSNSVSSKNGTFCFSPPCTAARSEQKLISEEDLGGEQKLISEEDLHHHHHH

T4: Dimeric monkey CD48-mFc (monkey)
T4 construct: Soluble monkey CD48 with a C-terminal Fc fusion [mFc]; the whole entry is the construct
T4 chain: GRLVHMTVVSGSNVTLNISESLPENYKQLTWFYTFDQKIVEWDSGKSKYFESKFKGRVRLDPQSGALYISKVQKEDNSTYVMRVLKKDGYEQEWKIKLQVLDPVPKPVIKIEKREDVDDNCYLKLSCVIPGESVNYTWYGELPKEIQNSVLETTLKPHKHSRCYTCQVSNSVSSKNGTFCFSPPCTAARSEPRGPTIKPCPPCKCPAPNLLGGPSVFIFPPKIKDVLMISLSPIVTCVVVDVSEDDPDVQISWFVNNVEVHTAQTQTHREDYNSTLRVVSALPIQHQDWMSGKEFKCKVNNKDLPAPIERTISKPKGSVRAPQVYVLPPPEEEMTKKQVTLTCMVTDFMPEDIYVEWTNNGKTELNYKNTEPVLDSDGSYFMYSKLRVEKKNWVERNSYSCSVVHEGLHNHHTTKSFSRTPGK

B1: H4H1770P (antibody, human IgG4, V domains shown)
VH: QVQLVQSGAEVKKPGAAVKVSCKASGYTFTAYGISWVRQAPGQGLEWMGWISAYDGDTNNAQKFQGRVTMTTDTSSSTAYMELRSLGSDDTAVYYCARDRYSSSSGYFDYWGQGTLVTVSS
VL: DIQMTQSPSSVSASVGDRVTITCRASQDISSWLAWSQQKPGKAPKALIYAASSLQSGVPSRFSGSGSGTDFTLTISSLQPEDFATYYCQQANSFPYTFGQGTKLEIK
notes: Human IgG4 Fc (H4H)
B2: H4H1774P (antibody, human IgG4, V domains shown)
VH: QVQLVESGGGVVQPGRSLRLSCAASGFTFSNYGMHWVRQAPGKGLEWVAVIWYDESSKYYTDSVKGRFTISRDNSQNTLYLQMTSLRAEDTAVYYCARDRWTYSHYFEYWGQGTLVTVSS
VL: DIQMTQSPSSVSASVGDRVTITCRASQGISSWVAWYQQKPGKAPKLLIYAASSLQSGVPSRFSGSGSGTDFTLTISSLQPEDFATYYCQQANSFPRTFGQGTKVEIK
notes: Human IgG4 Fc (H4H)
B3: H4H1775P (antibody, human IgG4, V domains shown)
VH: QVQLVESGGGVVQPGRSLRLSCAASGFTFSNYGMHWVRQAPGKGLEWVAVIWYDESGKHYADSVKGRFTISRDNSQNTLYLQMTSLRAEDTAVYYCARDRWTYSHYFEYWGQGTLVTVSS
VL: DIQMTQSPSSVSASVGDRVTITCRASQDISSWVAWYQQKPGKAPKLLIYAASSLQSGVPSRFSGSGSGTDFTLTISSLQPEDFATYYCQQANSFPRTFGQGTKVEIK
notes: Human IgG4 Fc (H4H)
B4: H4H1779P (antibody, human IgG4, V domains shown)
VH: QVQLVESGGGVVQPGRSLRLSCAASGFTFSNYGMHWVRQAPGKGLEWVAVIWYDESSKHYADSVKGRFTISRDNSQNTLYLQMTSLRAEDTAVYYCARDRWTYSHYFEYWGQGTLVTVSS
VL: DIQMTQSPSSVSASVGDRVTITCRASQDISSWVAWYQQKPGKAPKLLIYAASSLQSGVPSRFSGSGSGTDFTLTISSLQPEDFATYYCQQANSFPRTFGQGTKVEIK
notes: Human IgG4 Fc (H4H)
B5: H4H1772P (antibody, human IgG4, V domains shown)
VH: EVQLVESGGGLVQPGGSLRLSCAASGFTFSSYWMSWVRQAPGKGLEWVANIMRDGSEKYYVDSVKGRFTISRDNAKNSLYLQMNSLRGEDTAVYYCARERGFYTNYGNWFDPWGQGTLVTVSS
VL: DIVMTQSPLSLTVTPGESASISCRSSQSLLHSYGYNSLDWYLQKPGQSPQFLIYLVSNRASGVPDRFSGSGSGTDFTLKISRVEAEDVGVYYCMQVLQTPYTFGQGTKLEIK
notes: Human IgG4 Fc (H4H)
B6: H4H1771P (antibody, human IgG4, V domains shown)
VH: QVQLVQSGTEVKKPGASVKVSCKVSGYTLIDLSIHWVRQAPGEGLEWMGGFDPEESETIYAQKFQGRVTMTEDTSTDTAYMELSSLRSEDTAVYYCVTEPIFGILIHESWGQGTLVTVSS
VL: DIVMTQTPLSSPVTLGQPASISCRSSHSPVHSNGHTYLSWLQQRPGQPPRILIYKISRRFSGVPDRFSGSGAGTDFTLKISRVETEDVGIYYCMQASQFPWTFGQGTKVEIK
notes: Human IgG4 Fc (H4H)

Legend:
Monomeric human CD48-mmH = target: T1, Monomeric human CD48-mmH; experiment: SPR (Biacore), antibody captured by anti-Fc, CD48 in solution, 37 C
Experimental: (§1) Measurements were conducted on a T100-2 BIACORE™ instrument (Biacore Life Sciences division of GE Healthcare, Piscataway, N.J.). Antibodies (either with mouse Fc [designated “H2M” or “H3M”] or human IgG4 Fc [designated “H4H”]) were captured through an anti-Fc chip surface, and CD48 was flowed over the surface either in a monomeric (soluble CD48 expressed with a myc-myc-hexa-histidine C-terminal tag [mmH]) or dimeric (soluble CD48 expressed with a C-terminal Fc fusion [mFc]) format.
(§2) The soluble CD48 was applied to the flow cell in separate injections at different concentrations, and kinetic association (kₐ) and dissociation (kd) rate constants were determined by fits to the kinetic binding data using Biacore software. Binding dissociation equilibrium constants and dissociation half-times were calculated from the kinetic rate constants as: KD=kd/kₐ; t_{1/2}=(ln 2/kd) (units: ka=M⁻¹*s⁻¹; kd=s⁻¹; KD=M; T½=min) (Tables 3-6).

Dimeric human CD48-mFc = target: T2, Dimeric human CD48-mFc; experiment: as above
Experimental: as §1, §2

[1] = target: T3, Monomeric monkey CD48-mmH; experiment: as above
Experimental: as §1, §2

Dimeric monkey CD48-mFc [2] = target: T4, Dimeric monkey CD48-mFc; experiment: as above
Experimental: as §1, §2

[3] = target: T3, Monomeric monkey CD48-mmH; experiment: SPR (Biacore), antibody captured by anti-Fc, CD48 in solution, 25 C
Experimental: as §1, §2

Dimeric monkey CD48-mFc [4] = target: T4, Dimeric monkey CD48-mFc; experiment: as above
Experimental: as §1, §2

Row | Binder | Kd (Monomeric human CD48-mmH) | T½ (Monomeric human CD48-mmH) | koff (Monomeric human CD48-mmH) | kon (Monomeric human CD48-mmH) | Kd (Dimeric human CD48-mFc) | T½ (Dimeric human CD48-mFc) | koff (Dimeric human CD48-mFc) | kon (Dimeric human CD48-mFc) | Kd [1] | T½ [1] | koff [1] | kon [1] | Kd (Dimeric monkey CD48-mFc [2]) | T½ (Dimeric monkey CD48-mFc [2]) | koff (Dimeric monkey CD48-mFc [2]) | kon (Dimeric monkey CD48-mFc [2]) | Kd [3] | T½ [3] | koff [3] | kon [3] | also measured
1 | B1 | 662 pM | 0.367 h | 0.000533 s⁻¹ | 804000 M⁻¹ s⁻¹ | 13.8 pM | 6.25 h | 3.08e-05 s⁻¹ | 2.23e+06 M⁻¹ s⁻¹ | 440 pM | 1.1 h | 0.000174 s⁻¹ | 396000 M⁻¹ s⁻¹ | 91.1 pM | 1.38 h | 0.000139 s⁻¹ | 1.53e+06 M⁻¹ s⁻¹ | 298 pM | 0.9 h | 0.000215 s⁻¹ | 720000 M⁻¹ s⁻¹ | Kd (Dimeric monkey CD48-mFc [4]): 131 pM; T½ (Dimeric monkey CD48-mFc [4]): 1.72 h; koff (Dimeric monkey CD48-mFc [4]): 0.000113 s⁻¹; kon (Dimeric monkey CD48-mFc [4]): 858000 M⁻¹ s⁻¹
2 | B2 | 824 pM | 1.8 h | 0.000107 s⁻¹ | 130000 M⁻¹ s⁻¹ | 43.9 pM | 12.1 h | 1.6e-05 s⁻¹ | 363000 M⁻¹ s⁻¹ | 1360 pM | 0.717 h | 0.000267 s⁻¹ | 197000 M⁻¹ s⁻¹ | 107 pM | 3.57 h | 5.4e-05 s⁻¹ | 508000 M⁻¹ s⁻¹ | 289 pM | 2.52 h | 7.63e-05 s⁻¹ | 263000 M⁻¹ s⁻¹ | Kd (Dimeric monkey CD48-mFc [4]): 52.5 pM; T½ (Dimeric monkey CD48-mFc [4]): 9.3 h; koff (Dimeric monkey CD48-mFc [4]): 2.07e-05 s⁻¹; kon (Dimeric monkey CD48-mFc [4]): 395000 M⁻¹ s⁻¹
3 | B3 | 536 pM | 2.03 h | 9.48e-05 s⁻¹ | 177000 M⁻¹ s⁻¹ | 43.4 pM | 8.48 h | 2.27e-05 s⁻¹ | 522000 M⁻¹ s⁻¹ | 498 pM | 1.5 h | 0.000129 s⁻¹ | 260000 M⁻¹ s⁻¹ | 59.3 pM | 4.85 h | 3.97e-05 s⁻¹ | 669000 M⁻¹ s⁻¹ | 140 pM | 4.73 h | 4.07e-05 s⁻¹ | 291000 M⁻¹ s⁻¹ | Kd (Dimeric monkey CD48-mFc [4]): 13.5 pM; T½ (Dimeric monkey CD48-mFc [4]): 29.2 h; koff (Dimeric monkey CD48-mFc [4]): 6.6e-06 s⁻¹; kon (Dimeric monkey CD48-mFc [4]): 488000 M⁻¹ s⁻¹
4 | B4 | 495 pM | 1.88 h | 0.000102 s⁻¹ | 207000 M⁻¹ s⁻¹ | 59.4 pM | 4.2 h | 4.59e-05 s⁻¹ | 772000 M⁻¹ s⁻¹ | 1040 pM | 0.667 h | 0.000289 s⁻¹ | 277000 M⁻¹ s⁻¹ | 82.9 pM | 3.22 h | 5.98e-05 s⁻¹ | 721000 M⁻¹ s⁻¹ | 375 pM | 1.7 h | 0.000113 s⁻¹ | 301000 M⁻¹ s⁻¹ | Kd (Dimeric monkey CD48-mFc [4]): 60.6 pM; T½ (Dimeric monkey CD48-mFc [4]): 6.07 h; koff (Dimeric monkey CD48-mFc [4]): 3.17e-05 s⁻¹; kon (Dimeric monkey CD48-mFc [4]): 522000 M⁻¹ s⁻¹
5 | B5 | 5940 pM | 0.183 h | 0.00102 s⁻¹ | 172000 M⁻¹ s⁻¹ | 65 pM | 3.22 h | 5.98e-05 s⁻¹ | 920000 M⁻¹ s⁻¹ | 4530 pM | 0.133 h | 0.00145 s⁻¹ | 320000 M⁻¹ s⁻¹ | 94.7 pM | 2.63 h | 7.31e-05 s⁻¹ | 772000 M⁻¹ s⁻¹ | 1100 pM | 0.383 h | 0.000508 s⁻¹ | 461000 M⁻¹ s⁻¹ | Kd (Dimeric monkey CD48-mFc [4]): 96.8 pM; T½ (Dimeric monkey CD48-mFc [4]): 3.83 h; koff (Dimeric monkey CD48-mFc [4]): 5.02e-05 s⁻¹; kon (Dimeric monkey CD48-mFc [4]): 519000 M⁻¹ s⁻¹
6 | B6 | 488 pM | 0.35 h | 0.000547 s⁻¹ | 1.12e+06 M⁻¹ s⁻¹ | 16.6 pM | 4 h | 4.81e-05 s⁻¹ | 2.89e+06 M⁻¹ s⁻¹ | 1340 pM | 0.217 h | 0.000877 s⁻¹ | 657000 M⁻¹ s⁻¹ | 62.1 pM | 1.88 h | 0.000102 s⁻¹ | 1.64e+06 M⁻¹ s⁻¹ | 453 pM | 0.4 h | 0.000477 s⁻¹ | 1.05e+06 M⁻¹ s⁻¹ | Kd (Dimeric monkey CD48-mFc [4]): 58.7 pM; T½ (Dimeric monkey CD48-mFc [4]): 3.5 h; koff (Dimeric monkey CD48-mFc [4]): 5.51e-05 s⁻¹; kon (Dimeric monkey CD48-mFc [4]): 939000 M⁻¹ s⁻¹
